Results published in patent US20100129815.

How the values were obtained:
[1] = molecular target: T1, GST-MLC2a fusion protein, Q9QVP4
T1 chain: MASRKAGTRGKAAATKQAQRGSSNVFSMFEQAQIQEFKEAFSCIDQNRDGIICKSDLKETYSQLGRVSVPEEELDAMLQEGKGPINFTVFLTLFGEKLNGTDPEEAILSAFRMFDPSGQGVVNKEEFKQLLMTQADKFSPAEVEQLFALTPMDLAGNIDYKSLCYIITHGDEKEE

[2] = molecular target: T2, GST-MLC2v fusion protein, P08733
T2 chain: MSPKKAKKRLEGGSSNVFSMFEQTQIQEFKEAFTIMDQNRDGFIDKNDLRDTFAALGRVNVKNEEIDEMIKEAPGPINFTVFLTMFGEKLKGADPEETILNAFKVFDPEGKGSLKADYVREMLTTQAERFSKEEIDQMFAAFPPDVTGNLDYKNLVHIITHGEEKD

B1: HA-tagged full length cardiac MLCK (protein)
chain: MYPYDVPDYASGVSEEDPEGLAPQGLPALGGACLATMDKKLNVLTEKVDRLLHFQEDVTEKLQCVCQGMDHLEQDLHRLEASRELSLAGSGSTPPTTAQAAWPEVLELVRAVRQEGAQHGARLEALFKMVVAVDRAITLVGSTFQNSKVADFIMQGTVPGRKGSLADGPEENKEQAEVAGVKPNHVLTTGGVQADASRTLWEESQKEDIPVRTVEGLPLIINTSLKGADLTQAGASLRQGVEVLGPGQVPLPTEAESRLPETASENTGATLELSVAIDRISEVLTSLKMSQGGGQETSSSKPDCWLSEEAMRLSSGPLPQPLGPLTPDSDIHSGDALPRIPINMQEMATPGELLETQSGSPIGSAEAPGLGTVLEDQIPKGARPFPPLPKRSSNNGGMSAEEEIGSGAEPMRGPSLATRDWRDETVGTTDLQQGIDPGAVSPEPGKDHAAQGPGRTEAGRLSSAAEAAIVVLDDSAAPPAPFEHRVVSIKDTLISAGYTVSQHEVLGGGRFGQVHRCTERSTGLALAAKIIKVKNVKDREDVKNEVNIMNQLSHVNLIQLYDAFESKSSFTLIMEYVDGGELFDRITDEKYHLTELDVVLFTRQICEGVHYLHQHYILHLDLKPENILCVSQTGHQIKIIDFGLARRYKPREKLKVNFGTPEFLAPEVVNYEFVSFPTDMWSVGVITYMLLSGLSPFLGETDAETMNFIVNCSWDFDADTFKGLSEEAKDFVSRLLVKEKSCRMSATQCLKHEWLSHLPAKASGSNVRLRSQQLLQKYMAQSKWKKHFHVVTAVNRLRKFPTCP
in vitro kinase assay, incorporation of 32P [1]: promotes incorporation of ^32P to GST-MLC2v and GST-MLC2a fusion proteins
Km (Lineweaver-Burk plot, 32P incorporation into GST-MLC2v; with Ca2+/calmodulin) [2]: 3.9±1.2 (with Ca^2+/calmodulin)
Km (Lineweaver-Burk plot, 32P incorporation into GST-MLC2v; with EGTA) [2]: 2.9±0.8 (with EGTA)
Km (Lineweaver-Burk plot, 32P incorporation into GST-MLC2v; without EGTA and Ca2+/calmodulin) [2]: Km value of 4.3±1.5 µM
in vitro kinase assay, incorporation of 32P [2]: promotes incorporation of ^32P to GST-MLC2v and GST-MLC2a fusion proteins
